In PMC10020445, “Mechanism underlying delayed rectifying in human voltage-mediated activation Eag2 channel” (Nature Communications, 2023):

Biological target: the molecule itself
Assay: cryo-EM structure; purified hEag2 in 20 mM Tris-HCl pH 8.0, 150 mM KCl, 1 mM MgCl2, 0.03% digitonin, about 5 mg/ml; six maps (closed 1, closed 2, pre-open 1, pre-open 2, open, pore dilation but non-conducting) refined with C4 symmetry imposed

B1: human Eag2 (hEag2) voltage-gated potassium channel (natural protein, UniProt Q8NCM2 1-988, looked up)
chain: MPGGKRGLVAPQNTFLENIVRRSSESSFLLGNAQIVDWPVVYSNDGFCKLSGYHRADVMQKSSTCSFMYGELTDKKTIEKVRQTFDNYESNCFEVLLYKKNRTPVWFYMQIAPIRNEHEKVVLFLCTFKDITLFKQPIEDDSTKGWTKFARLTRALTNSRSVLQQLTPMNKTEVVHKHSRLAEVLQLGSDILPQYKQEAPKTPPHIILHYCAFKTTWDWVILILTFYTAIMVPYNVSFKTKQNNIAWLVLDSVVDVIFLVDIVLNFHTTFVGPGGEVISDPKLIRMNYLKTWFVIDLLSCLPYDIINAFENVDEGISSLFSSLKVVRLLRLGRVARKLDHYLEYGAAVLVLLVCVFGLVAHWLACIWYSIGDYEVIDEVTNTIQIDSWLYQLALSIGTPYRYNTSAGIWEGGPSKDSLYVSSLYFTMTSLTTIGFGNIAPTTDVEKMFSVAMMMVGSLLYATIFGNVTTIFQQMYANTNRYHEMLNNVRDFLKLYQVPKGLSERVMDYIVSTWSMSKGIDTEKVLSICPKDMRADICVHLNRKVFNEHPAFRLASDGCLRALAVEFQTIHCAPGDLIYHAGESVDALCFVVSGSLEVIQDDEVVAILGKGDVFGDIFWKETTLAHACANVRALTYCDLHIIKREALLKVLDFYTAFANSFSRNLTLTCNLRKRIIFRKISDVKKEEEERLRQKNEVTLSIPVDHPVRKLFQKFKQQKELRNQGSTQGDPERNQLQVESRSLQNGASITGTSVVTVSQITPIQTSLAYVKTSESLKQNNRDAMELKPNGGADQKCLKVNSPIRMKNGNGKGWLRLKNNMGAHEEKKEDWNNVTKAESMGLLSEDPKSSDSENSVTKNPLRKTDSCDSGITKSDLRLDKAGEARSPLEHSPIQADAKHPFYPIPEQALQTTLQEVKHELKEDIQLLSCRMTALEKQVAEILKILSEKSVPQASSPKSQMPLQVPPQIPCQDIFSVSRPESPESDKDEIHF
notes: human Eag2 potassium channel (hEag2), UniProtKB Q8NCM2; gene placed before a PreScission protease site, followed by C-terminal EGFP and FLAG; the C-terminal GFP tag was removed with HRV 3C protease; the methods describe only one construct; FLAG stands after EGFP behind the protease site, so it leaves with the GFP tag; Residues with poor side-chain density were modelled as alanines in the …
  stoichiometry N: 4
